Laboratory results published in patent US7888090B2, “Mutants of O6-alkylguanine-DNA alkyltransferase” (Ecole Polytechnique Federale de Lausanne, priority 2004, dated 2011).

Columns and labels:
[1] = Competition of N^9-substituted and N^9-unsubstituted O^6-benzylguanine substrates; assay type: biochemical
Description: Such N^9-substituted O^6-alkylguanine substrates are the natural substrates of the wild type AGT. The ability of wild type AGT or mutant AGT to react with N^9-modified O^6-alkylguanine substrates is measured as the rate of its reaction with such substrates, e.g. with the low molecular weight N^9-cyclopentyl-O^6-benzylguanine in presence of biotinylated N^9-unsubstituted O^6-alkylguanine substrates in competition experiments. Subsequently, samples are subjected to Western blotting and detection with streptavidin derivates to obtain kinetic constants for these substrates. Alternatively, the reactivity towards such substrates is measured as the inhibition of the reaction of AGT with BG-Cy3. The reaction of AGT with BG-Cy3 is followed by an increase of Cy3 fluorescence intensity upon binding to AGT, after preincubation or in direct competition with the N^9-modified O^6-alkylguanine substrate.
Selected AGT mutants are subcloned into pGEX2T, expressed, purified and characterized as described in Example 1. Discrimination between N^9 substituted and N^9 unsubstituted O^6-benzylguanine substrates is evaluated by competition experiments for purified mutated GST-AGT in vitro with N^9-substituted and N′-unsubstituted O^6-benzylguanine. Aliquots of 0.2 μM GST-AGT are incubated with varying concentrations of N^9 substituted substrate (0, 0.5, up to 100 µM) and 0.5 µM biotinylated O^6-benzylguanine (BG-Bt, substance 3a of Juillerat et al., Chem Biol 10:313-317, 2003) in 50 mM HEPES pH 7.3 and 1 mM DTT at room temperature. After 45 min reactions are quenched by the addition of SDS-Laemmli buffer and heat denaturation. Samples are subjected to SDS-PAGE and Western blotting analysis (neutravidin-peroxidase conjugate (PIERCE), Renaissance reagent plus (NEN)). The intensity of the corresponding bands is quantified by a Kodak Image Station 440.

[2] = Expression yield of soluble GST-AGT fusion protein; set-up: species or system E. coli; conditions: comparator not stated
Method in brief: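 GST-AGT fusions expressed in E. coli BL21, induced with 0.5 mM IPTG for 3.5 h at 24 °C, and purified from the soluble fraction on glutathione sepharose. Soluble and insoluble fractions compared by SDS-PAGE. Yield taken from A280 relative to wild-type hAGT purified the same way.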

B1: AGTM: AGT mutant Cys62Ala, Gln115Ser, Gln116His, Lys125Ala, Ala127Thr, Arg128Ala, Gly131Lys, Gly132Thr, Met134Leu, Arg135Ser, Cys150Asn, Ser151Ile, Ser152Asn, Asn157Gly, Ser159Glu, truncated after … (protein, UniProt P16455 1-207, looked up, variant C62A Q115S Q116H K125A A127T R128A G131K G132T M134L R135S C150N S151I S152N N157G S159E del183-207)
Methylated-DNA--protein-cystei …: MDKDCEMKRTTLDSPLGKLELSGCEQGLHEIKLLGKGTSAADAVEVPAPAAVLGGPEPLMQATAWLNAYFHQPEAIEEFPVPALHHPVFQQESFTRQVLWKLLKVVKFGEVISYSHLAALAGNPAATAAVKTALSGNPVPILIPCHRVVNINGAVGGYEGGLAVKEWLLAHEGHRLGKPGLG
modifications: His tag
reduced reactivity with N^9-substituted O^6-alkylguanine derivatives (factor) [1]: ≥ 10
reduced reactivity towards O^6-alkyl-N^9-deoxyribosylguanine or N^9-cyclopentyl-O^6-benzylguanine ([1]; comparator not stated): at least 100 fold
expression yield in E. coli [2]: increased expression yield
